In a protein production outcome set (Wang et al. 2014):

Assay: label from the status in PepcDB records
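Note: failed if final PepcDB status was selected cloned or expressed and not failed if soluble or beyond.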

For “LKYILETKLEEERNHLEELLEKVEEDYEGINYDEVLEALKLFKDNYELPKSKIKRKIRIFLIKENILFLNPQKGTLKPQSYLVWNAIKRML”, the protein production was “not failed”.
In the case of “ALKQKIIGNGEKRVVTYAPTWREDDFISVGHYHFRWHFSLKKMMGLLPEDVMLLIRPHYLVTDRIDIKGFEDRVVIDSTTDMNEIYLITDLMVTDYSSVMFDFAILKRPMLFFAYDLEYYRDDLRGFYFDYYTELPGSIVTDETHLLAEIDQLLQNNFAELDPERFNKFAKRFVSWERGTAAQQVIEKINYRRDEK”, the protein production is reported as “failed”.
In the case of “MKKWRFLGIDDSFDDRKCCVVGCVTCGGYVEGFLYTEIDIDGLDATDKLISMVRRSKFREQIKCIFLPGITLGGFNLVDIQRVYRETKIPVVVVMRRKPDMEEFDSAMRNLENYELRRKIVEVAGEIHRIGDIYIQTAGLTPSEAEKLVKASLIKGNMPEPVRISHLVASAIIHGESRGKA”, the protein production is reported as “not failed”.
For “MNAPEIAAFKAERREPDKTDVDKLTGELDIRSEIWLIFDDLSTILEDQHFADKGVELLFSSLRYNTHNAKIIVTSRIVPIFENGESLIDVVEDEEKQNLKGLRKDYAVDYLVSNGLDKVEHEKLEELATGVDGHPLALKLLVELVKEFGVKDTLEDLSMYQESKDDTIKKARRLFDKLAGEEKELLESISVYREPVDMKGLREMFTLNTPKNAVKKLTDKSLLENDHNGSYWLHPLVQEFSYKDLKNKKEAHILAVKYCLSLPLPENPTKKGDVQPLIEAHYHTCAAKEYDAAAEIIFHFKLYEMLERWGNYNTLIELYEGVLPKSHFEDEPLLKNKEFHISILGNLGNVYTVLNEGKKAIQYHEKVVELNKGATNKFNEIISISNIGLFYFQQGMMKKAIECFEQTLKISNHDNQKGISGANLGNIGLVYLQIGEPKKAIQYFEKSLPLLKEANDKRREGANLGHMGMAYLQLNEAKEAVQCIQQSMYIAEEINDKRSIGNCFGNMGIIHSFFGEMKEALESYEQALSIAKEIDDRCNLGNWLGNKGRVYFDSGEIEKAIEFYKHALRIAKEINDVVREGLWIENLGQAFSYQGEFKKAIEYYEQALKISREIGNISAEGNLLENMGLAYYSLGEPRKAIEFLKESLAIRKAIEDPKIIGFCEQKLKELKGYDE”, the protein production was “failed”.
In the case of “MQTKVINFNDKFSLFNQHWSPRVIAEMNDYQFKLVKVEGEFVWHEHADTDEVFIVMEGTLQIAFRDQNITLQAGEMYVIPKGVEHKPMAKEECKIMIIEPR”, the protein production is reported as “not failed”.
For “MTLTEQPQRIAILHSLYLEYFLALGTPPIASAGASTGDAMKALGEWETLKPYAGTAKIIDLGSARDLNLEAILGANPDVIVTFKGQGNLDKIYEQLEQIAPVILVDFSAPWQEQILACAEIVNKEADAQKLIKEIEDSVQSAKEKLSRLEHHHHHH”, the protein production was “failed”.
With “MQYIKQIMLLVILTISWKCQAEEVKEIWLDELGESSYYIQDWGLPRINKAVTMTPLTVKGIVYERGIGTHAISRMLFDIGKKAKTLSGLAGADDNTPFACNLQFKILGDRKELWRSGIMRKGDPAKPFNIDLSGIDKVLLLVEECGDGMMYDRADWLNVKFTTLGDVQPIPVWPKPIAKEKYILTPQSPDAPQINNPLTYGARPGNPFLMPIMVSGKRPMTYKAKGLPKGLKLNRKTGLITGSTNTNGNFKVRLQATNEKGTDEKEITLKIGSEIMLTPPMGWNSWNCWRFAADDQKVRDAARIMHEKLQAYGWTYVNIDDGWEADERTPEGELPANEKFPDFKTLTDYIHSLGLKFGIYSSPGWTTCGRHIGSCQHELTDAKTWEKWGVDYLKYDYCGYAAIEKNSEEKTIQEPFIVMRNALDQIKRDIVYCVGYGAPNVWNWGAEAGGNLWRTTRDINDQWNIVMAIGCFQDVCAYVSAPGKYNDPDMLVVGKLGPGWGAKSHDSDLTADEQYAHISLWSILSAPLLLGCDMTAIDDFTLGLLTNPEVIAVNQDPLVAPATKLTVPNGQIWYKKLYDGSYALGFFQMDPYFILWDQDKAVNIQQQKYNFNFALNQLGIQGKVKIRDLWRQKNLGIFSGSYETSIPYHGVSLIKITPIK” the protein production was “failed”.
For “MNVAEEMLSGEETLAVGERFKTFLENFRTEEGKLKYVEAIRRMINYEETSLEVEFKDLYRYDPLLSEILLEKPREFLKEASEALKEIVAQESPEYAQGRVFTPRFTGLFDTERIRDIGSDHVGKLVQINGIVTRMHPRATRMVRARFRHDRCGAEFWWPANEDEVLGERIERPSICPVCGEGGGKFTLVRDKSLYIDWQKIMVQERPEDVPGGQIPRSIEVHLSRDLVEKVRPGDRVKIVGVVGLQSFSSSSTLYSLYMEANSILLEEKILEEVSITREDEEKILQLSRDPWIKEKIIASIAPTIYGHWDLKEAIALLLFGGVPKQRPDGTRTRGDIHVLFVGDPGVAKSQLLQSTAQVAPRVVYTTGKGSTAAGLTAAVLRDPRTGEYFLEAGALVLADGGIAVIDEFDKMSKEDRGVIHEAMEQQTVSIAKAGIKATLSARASLLAAGNPKFGYYDPSRSFVDNVDLPAPIISRFDLIFVVRDVIERSRDEMLASYVLETHTNVELFKPEIDPDLLRKYIAFARKHVKPRLTPQAKKLLKDFYVEMRSSALHHSSQEGAKPVPITTRQLEALIRLTEAHARMSLKQEATEEDAIAAIRIMTSVLQSIGLDLETGEIDIGIIMTGASFRSRKIMSEVLDLIKSIVEEERGGQGCVRASEIVRRLGEKNIPEEKVRDAIDKLYRQGLIIEIRTECYKAV”, the protein production was “failed”.
In the case of “SMLSRAKPAVGGESPHTDKRKKKGRKIPKLEDLLSQRDFTGAITLLEFKRHVGEQEDDTNLWIGYCAFHLGDYKRALEEYENATKEENCNPEVWVNLACTYFFLGMYKQAEAAGFKAPKSRLQNRLLFHLAHKFNDEKKLMNFHQNLQDIKEDQLSLASNSEIHLPLPPECWD”, the protein production is reported as “failed”.
With “MDAAVVGGGPAGSLAAILLGKSYDVALFEEHQSAGFPVQCAGLVSDKCYKKLKEHCKAEKAIENHIKGAFFFSPSGKIVLEGRGEAVVVERKILDRLLFERAAERAKVFVKEKARLNGFRIITPSREVSAEKIIGADGVNSTVREHFGFPTMGFFTAVQVEAKFEPLDENCVELYFGGNWSDSFFAYAIPLGDTARIGVVSRSSPLRYLENLMKRHPSVSGRVEGSAVELNAGAIPDRLVKFSKRDVALIGDAAGMVKPYTGGGLYYHLIAAEKLAESFPDLKGYEKSYLKEMGREYRFGYAVRKLYSLPDEKLEQLFSAMADFDFRGVHMDSPSTLIRKAADISFRLLRKPSLAFYLVKSLFLLEHHHHHH” the protein production was “failed”.
For “MGEAATKSDRQQNQTRLWLNILRLHGLVFGDLNRQLLDETGLSLAKFDAMAQLARNPDGLSMGKLSGALKVTNGNVSGLVNRLIKDGMVVKAMSADDRRSFSAKLTDAGLTTFKQASEAHNRILAELLRAVSDQDMVEASAALRGILESMQTGASLD”, the protein production was “not failed”.
With “MTLFDGTPFEWAPGRIEVRARRECGASRKSLVVAAGVSYLARMIFSFDAFVTNALFDRSGRAMFALGDGTVRLQTDEGFVTVEAHGGPLGGAVLAAAVHPSGAGIVTGGDDGRVVWSRIEGGEVVATLIAEVKNKWIEHVAASAASGLIAFTVGKEVHVRDAADPAFARTFPHEKTVSGLAFEPKGRRLASATYGGAYLWYARIADQKPTVLKWAGSHIAVEFSPDGKFLISSMQENQLHGWRLSDGKDMRMGGYPSKIKSVAFFDKGNLLATAGASGAVIWPFAGANGPMGKEAAEIGFSRDSMVVRVAGIDPQPVCIAGQDSGKIWAAHMRNGRIETLKAEKGAPISALSVSADGKRLAWGDESGEAGVLEIPDLSGPRQFVGLEHHHHHH” the protein production was “failed”.
In the case of “MKDRLINFFGSEWFGMAIATLAVAQTFFLASRYMENITLKYTGEIFFYLGIIIFLVIFILWTIRGLTIHDKKWSHWNNLTRLSFIALVPIILFVINHITIELYGINELMARLSLYNYFFSYFLALILGVLLGYRIYTKEINRNEINYAIIIPPLSIGTSIFLATPLIGYYHGTIAESIYFLVLMGLGIFFFLYIFIGSVALSGHVSNKSGSSLPTAMLPVGVSSLIIINLISINSFGAVIDHLPFSIYTVEFVSILLWGFEVWNFLVMMIIVFRKETFGYLSVWAYGFPLGLFATSTIKLEEVTKIVILGNIFIFIWVALVLLWFYGILNTYVFIRRGILGSHPDK”, the protein production is reported as “failed”.
With “MTMREYMLGNVAIARGLLEGGVQVIAGYPGTPSSEIIDTLASREDRDYHIEWSVNEKVAMEVAVGAAWTGVRSVVTMKHVGLNVAADPFMTLAYAGTKGGLIAIVADDPSCHSSQNEQDTRRYAQFALVPCFDPSTPQEAKDMLPYAFEFSEKFEIPVIFRPTTRISHGKSDIELGEIPAEKAVPHFEKLLDRWVMLPKNARPRHTHILSIQQAMEDELAESPWNSLEIKPGAKMGVIGSGIASVYAKEALQELGLEASFLKIGTYPVPKKLILELLSTVDTVLIFEELEPVVEEQVRILAQEAGLEVSVLGKEGGFVSREGELDVSAFLEALRKAFDLDIEPDSGKVPLELAPRPPSLCAGCSHRATFYSMKKVFGKDAIYPSDIGCYTLGIQSGTVETTLCMGSSISIASGLYHAGEKRPICCSIGDSTFFHTGMNSLLNAVFNKANITVTILDNRITAMTGHQPNPGVGFTVTGEPTVEVSLAELCKAMGAGFVTVVDPYNLEETQEAFKAAKEFEGTAVVIAKQPCVISGKRAGIKRVPYIVDPEKCEGCKQCVKFGCPAIEFDEENKCAVITSLCSGCGVCAQICKFDAIREVKR” the protein production was “failed”.
For “MSPKKDKFLDNAQKFLVKGQLDRALREYEQAVAIDPKDVRVRQKYAELLVRANRKDDALKEFEVIGKYYSDNGFYLKAIAVYKQIQKLTPSNLDISLTLGALNEKQGLIGNALAEYKFVFDHYERSNRFIDAVAVLEKMLAADRDNLNIRLKLAETRHRANLIDDAYHDYTELARELRSKGDNAAYTRVCERIASMFPDRKDFLLTVAENQIRDGKAAAAIPVLKQIVGDDRWNPKALYLLADAARAVADPAMVKGAYGQIIKRFPGEITAIKGFLFSLKAEGNVDEAVRVLRHVEPELIKAEPETLEQFYLSFRDLSPDHPGIAEGLLRIRGTAGVDEPEPMVEQVPDVAEPEKEADFAPQPEESDSVMEEPPAEDIPWEEEIDISFDSDGASVEGNRPTEGEASESPSFLHDEGMSLVEADESPIRFDDSSEEETREVEVELADFSSITPDWLDGVPDSAMDKPGETTFSEGLSLDFTDGELEDVIPPPPLDSPMPKPDKYGLDGLFSAFKKGVGEQLTQDDTESHYSLGIAYKEMGLFDDAIVEFQSAARDPRRLADCITLQGICSREKGDPAKAEEYFRSGLAVEGLNREERLCLTYELALLYEMIGDRTRALAGYREALALNPGFRDVAQKIAILRSDGDTHDAADLELLDLDEVEEGAG”, the protein production was “failed”.
With “QTQALFMNTRRAVFKERALRQALGEMFDFEWTNRALFSNSYLRSRSYYPNSEFAASGVPEGQEWLYLSPYRKQLPAQLFKQPFSLPTTEGRGIPRETLRHALGLLADAGWKLSGDRLLNKKGEPLRFEILLVNPSLERILQPYRENLASIGIDARLRTVDRAQYKQRLDQFDYDMILMTLPQTLSPGLEQWQYFHSSQVKVKGSKNYAGIANPVVDAMLNRLLGAHSRDEQVAAARALDRTLLWQYYSIPNWYLN” the protein production was “failed”.
For “MGFNVKTPLLATDVIIRLWDGENFKGIVLIERKYPPVGLALPGGFVEVGERVEEAAAREMREETGLEVRLHKLMGVYSDPERDPRAHVVSVVWIGDAQGEPKAGSDAKKVKVYRLEEIPLDKLVFDHKKIILDFLKGNY”, the protein production was “not failed”.
In the case of “MDYKSKTANDKEISIYYFSATGNSLKLSQDIAAAFGGAGLFRMTPSAGITASDSRIVGFIFPVYMGGLPGIVRRFLESYPFRKGVYYFSIGTYYTYKGCAVSVVDKIMSGKGVRLDYGYNLPTVGNCLKEYEVSSVRRTKILERAELYTSRIIDDLKKGKRKKPFPYCRLSDLLHKGLFNAFFSRSHLNFSLENGCMGCGVCERVCPVNNITLKNGVPRWGTGCEACHACVHWCPRNVIQIGKSKGRLQYHHPAVKRTMLYRVELEHHHHHH”, the protein production is reported as “not failed”.
For “MEVHYMTKIKEIKKVLQQEDADAAWITTPLNIFYFTGYRSEPHERLFALLIPSNEEPVLFCPKMEVEEVKQSPFKGKIIGYLDTENPFDKYSKTFSKMLIESEHLTVKRQRELTKAFNIEHYQDVDQSIKDLRNIK”, the protein production was “failed”.
With “MLLYVLIISNDKKLIEEARKMAEKANLELRTVKTEDELKKYLEEFRKESQNIKVLILVSNDEELDKAKELAQKMEIDVRTRKVTSPDEAKRWIKEFSEEGGSLEHHHHHH” the protein production was “not failed”.
